Results as given in patent publication US20190367631A1 (Regeneron, published 2019).
Residue numbers refer to the chain shown, from its start. Numbers in names are those of the source.

B1: H1H27762P-N297Q (antibody, V domains shown)
VH: QVQLVQSGAEVKKPGSSVKVSCKASGGTFSRYDISWVRQAPGQGLEWMGGIIPIFGTSNYAQKFQGRVTITTDESTSTVYMELSSLRSEDTAVYYCARGGRYGWFDPWGQGTLVTVSS
VL: not shown
notes: Human IgG1 Fc with N297Q; tied by the numerical identifier; also called H1H27762P2-N297Q; H1H27762P2
B2: H1H27759P-N297Q (antibody, V domains shown)
VH: EVQLVESGGGFVQPGGSLRLSCAASGFTFSSYAMSWVRQAPGKGLEWVSAISGTGSNTYYADSVKGRFTISRDNSKNTLYLQMNSLRAEDTAVYYCAKDRVTTVTYYFDYWGQGTLVTVSS
VL: not shown
notes: Human IgG1 Fc with N297Q; tied by the numerical identifier; also called H1H27759P2-N297Q; H1xH27759P2
B3: H1H27766P-N297Q (antibody, V domains shown)
VH: EVQLVESGGGLVQPGGSLRLSCAASGFTFSSFAMSWVRQAPGKELEWVSSISGRGGSTYYADSVRGRFTISRDNSKITLYLQMNSLRAEDTAVYYCAKDIVFRYTSSAYWYFDLWGRGTLVTVSS
VL: not shown
notes: Human IgG1 Fc with N297Q; tied by the numerical identifier; also called H1H27766P2-N297Q; H1H27766P2
B4: H1H27729P-N297Q (antibody, V domains shown)
VH: QVQLVESGGGLVKPGGSLRLSCAASGFIFSDYYMSWIRQAPGKGLEWVSYISSSGTTIYGDSVKGRFTMSRDNAKNSLYLQMNSLRAEDTAVYYCARNYALFDYWGQGTLVTVSS
VL: DIQMTQSPSSLSASVGDRVTITCQASQDISKYLNWYQQKPGKAPKLLIYYTSNLETGVPSRFSGSGSGTDFTFTISSLQPEDIATYYCHQSDYLPFTFGPGTKVDIKR
notes: Human IgG1 Fc with N297Q
B5: H1H27732P-N297Q (antibody, V domains shown)
VH: QLQLQESGPGLVKPSETLSLTCTVSGGSISSSTYYWGWIRQPPGKGLEWIGSFYYSGSTYYNPSLKSRVTISVGTSKNQFSLKLSSVTAADTAVYFCARGGLLGRPFVIWGQGTMVTVSS
VL: DIQMTQSPSSLSASVGDRVTITCRASQGIRNDLGWYQQKPGKAPKRLIYAASSLQSGVPSRFSGSGSGTEFTLTISSLQPEDFATYYCLQHNSYPLTFGGGTKVEIKR
notes: Human IgG1 Fc with N297Q
B6: H1H27739P-N297Q (antibody, V domains shown)
VH: EVQLVESGGGLVQPGGSLRLSCTASGFTFSSYAMSWVRQAPGKGLEWVSAISGTGSSTYFTDSVKGRFAISRDNSKNTLYLQMNSLRAEDTAVYYCAKDGEWLSTVTLFDYWGQGTLVTVSS
VL: EIVMTQSPATLSVSPGERATLSCRASQSVSSNLAWYQQKPGQAPRLLIYGASTRATGIPARFSGSGSGTDFTLTISSLQSEDFALYYCQQYFIWPPHPTFGPGTKVDIKR
notes: Human IgG1 Fc with N297Q
B7: H1H27736P-N297Q (antibody, V domains shown)
VH: EVQLVESGGGLVQPGGSLRLSCAASGFTFSSYAMSWVRQAPGKGLEWVSSISGSGDSTFYTDSVKGRFTISRDISKNTLYLQMNSLRAEDTAVYYCAKDRLLWFGDLISPFHYWGQGTLVTVSS
VL: EIVLTQSPGTLSLSPGERATLSCRASQSVSNIYLAWYQQKPAQAPRLLIYGASSRATGIPDRFSVSGSGTDFTLTISRLEPEDFAVYYCQQYGSSPRTFGQGTKVEIKR
notes: Human IgG1 Fc with N297Q
B8: H1H27773P2-N297Q (antibody, human IgG1, V domains shown)
VH: EVQLVESGGGLVQPGGSLRLSCAASGFTFSSYAMNWVRQAPGKGLEWVSAISGSGDSTYYADSVKGRFTISRDNSRTTLSLQLNSLRAEDTAVYYCAKDRLLWFGELGSPFHYWGQGTLVTVSS
VL: not shown
notes: Human IgG1 Fc with N297Q; also called H1H27773P-N297Q
B9: H1H27731P-N297Q (antibody, V domains shown)
VH: QLQLQESGPGLVKPSETLSLTCTVSGGSISRISYYWGWIRQPPGKGLEWIGSIYDSGSTYYNPSLKSRVTISIDTSKNQFSLKLSSVTAADTAVYYCVRYSSSSAFAFDYWGQGTLVTVSS
VL: DIQMTQSPSSVSASVGDRVTITCRASQGISSWLAWYQQKPGKAPKLLIYAASSLQSGVPSRFSGSGSGTDFTLTISSLQPEDFATYYCQQANSFPFTFGPGTKVDIKR
notes: Human IgG1 Fc with N297Q
B10: H1H27747P-N297Q (antibody, V domains shown)
VH: QVQLVESGGAVVQPGRSLRLSCAASGFTFSYYGMHWVRQAPGKGLEWVAVISYDGSKKYYADSVKGRFTISRDNSKNTLYLQMNSLRAEDTAVYYCAKDLTVDFYYGMDVWGQGTTVTVSS
VL: B9 VL with A51T, V58A, Y87F, F96Y, P100Q, V104L, D105E
notes: Human IgG1 Fc with N297Q
B11: H1H27734P-N297Q (antibody, V domains shown)
VH: EVQLVESRGGLVQPGGSLRLSCAASGFTFSSYAMSWVRQAPGKGLEWVSAISGSGGSTFYADSVKGRFTISRDNSKNTVYLQMNSLRAEDTAVYYCAKALVLRFLEWLGDYWGQGTLVTVSS
VL: DIQMTQSPSTLSASVGDRVTITCRASQSISSWLAWFQQKPGKAPKLLIYKASSLESGVPSRFSGSGSGTEFTLTISSLQPDDFATYYCQQYKSYWTFGQGTKVEIKR
notes: Human IgG1 Fc with N297Q
B12: H1H27766P2-N297Q (antibody, V domains shown)
VH: B3 VH
VL: not shown
notes: Human IgG1 Fc with N297Q; also called H1H27766P-N297Q

target: T1, mouse MSR1 extracellular domain expressed with a N-terminal nonahistidine tag (His9-mMSR1); R&D Systems, Cat … (mouse, UniProt P30204 79-458); test: BLI Octet, 25 C, antibody captured
T1 construct: extracellular domain; not shown: N-terminal nonahistidine tag
T1 sequence (looked up): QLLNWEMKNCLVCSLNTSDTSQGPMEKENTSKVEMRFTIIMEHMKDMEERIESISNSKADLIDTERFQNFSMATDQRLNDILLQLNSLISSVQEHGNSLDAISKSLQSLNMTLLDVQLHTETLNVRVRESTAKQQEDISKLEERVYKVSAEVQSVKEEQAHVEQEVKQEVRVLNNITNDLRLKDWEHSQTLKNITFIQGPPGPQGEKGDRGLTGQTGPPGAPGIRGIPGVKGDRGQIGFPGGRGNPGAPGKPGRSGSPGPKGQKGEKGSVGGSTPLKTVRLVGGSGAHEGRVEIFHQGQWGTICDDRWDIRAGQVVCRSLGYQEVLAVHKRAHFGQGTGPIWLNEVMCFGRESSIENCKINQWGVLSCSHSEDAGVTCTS

Binder	binding result
B1	no binding (tested: 50 nM)
B2	no binding (tested: 50 nM)
B3	no binding (tested: 50 nM)

Target: T2, monkey MSR1 extracellular domain expressed with a N-terminal hexahistidine-myc-myc tag (HMM-mfMSR1) (monkey (Macaca fascicularis))
T2 chain: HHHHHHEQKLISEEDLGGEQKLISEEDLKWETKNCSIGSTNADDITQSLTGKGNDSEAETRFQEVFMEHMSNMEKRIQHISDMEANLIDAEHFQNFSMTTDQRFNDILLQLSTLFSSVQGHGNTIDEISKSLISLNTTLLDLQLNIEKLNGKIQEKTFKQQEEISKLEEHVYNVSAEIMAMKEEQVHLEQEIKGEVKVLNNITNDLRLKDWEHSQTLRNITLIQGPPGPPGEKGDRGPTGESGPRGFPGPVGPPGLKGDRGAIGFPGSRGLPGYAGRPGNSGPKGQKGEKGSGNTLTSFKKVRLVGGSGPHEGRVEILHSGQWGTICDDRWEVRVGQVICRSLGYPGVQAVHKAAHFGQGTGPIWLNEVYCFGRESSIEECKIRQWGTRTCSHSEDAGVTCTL
Test: SPR Biacore, 37 C, antibody captured
Experimental: Binding affinities and kinetic constants of human anti-MSR1 antibodies for different MSR1 reagents were determined by real-time surface plasmon resonance (Biacore 4000). All binding studies were performed in 10 mM HEPES, 150 mM NaCl, 3 mM EDTA, and 0.05% v/v Surfactant Tween-20, pH 7.4 (HBS-ET) running buffer at 25° C. and 37° C.
The association rate (kₐ) and dissociation rate (kd) were determined by fitting the real-time binding sensorgrams to a 1:1 binding model with mass transport limitation using Scrubber 2.0c curve-fitting software. Binding dissociation equilibrium constant (KD) and dissociative half-life (t½) were calculated from the kinetic rates as:

Binder	Kd	koff	kon	t½
B1	0.698 nM	0.00197 s⁻¹	2.82e+06 M⁻¹ s⁻¹	6 min
B2	1.28 nM	0.00188 s⁻¹	1.46e+06 M⁻¹ s⁻¹	6 min
B3	1.72 nM	0.000589 s⁻¹	343000 M⁻¹ s⁻¹	20 min

target: T3, human MSR1 extracellular domain expressed with a N-terminal nonahistidine tag (His9-hMSR1); R&D Systems, Cat … (human, UniProt P21757 77-451); test: SPR Biacore, 37 C, antibody captured
T3 construct: extracellular domain; also called His-hMSR1; 9xHis-hMSR1; not shown: N-terminal nonahistidine tag
T3 sequence (looked up): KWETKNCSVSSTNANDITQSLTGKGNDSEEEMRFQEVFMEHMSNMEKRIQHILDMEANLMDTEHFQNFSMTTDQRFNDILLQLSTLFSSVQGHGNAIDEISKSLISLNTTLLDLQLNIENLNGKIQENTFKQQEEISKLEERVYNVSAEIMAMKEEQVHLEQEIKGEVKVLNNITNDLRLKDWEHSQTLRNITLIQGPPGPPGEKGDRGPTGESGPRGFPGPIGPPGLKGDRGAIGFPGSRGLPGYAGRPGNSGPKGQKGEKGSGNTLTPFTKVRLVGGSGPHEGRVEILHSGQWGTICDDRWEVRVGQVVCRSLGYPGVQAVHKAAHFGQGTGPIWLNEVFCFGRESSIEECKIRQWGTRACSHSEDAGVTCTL

Binder	Kd	koff	kon	t½
B1	0.64 nM	0.00196 s⁻¹	3.06e+06 M⁻¹ s⁻¹	6 min
B2	2.24 nM	0.0023 s⁻¹	1.03e+06 M⁻¹ s⁻¹	5 min
B3	0.227 nM	7.72e-05 s⁻¹	340000 M⁻¹ s⁻¹	150 min

target: T4, human MSR1 extracellular domain expressed with a N-terminal nonahistidine tag (human, UniProt P21757 77-451); test: competition ELISA, plate-coated His9-hMSR1; 1 µM antibody, competitor ligand 10 nM Ox-LDL
T4 construct: extracellular domain; also called His9-hMSR1; His-hMSR1
T4 sequence: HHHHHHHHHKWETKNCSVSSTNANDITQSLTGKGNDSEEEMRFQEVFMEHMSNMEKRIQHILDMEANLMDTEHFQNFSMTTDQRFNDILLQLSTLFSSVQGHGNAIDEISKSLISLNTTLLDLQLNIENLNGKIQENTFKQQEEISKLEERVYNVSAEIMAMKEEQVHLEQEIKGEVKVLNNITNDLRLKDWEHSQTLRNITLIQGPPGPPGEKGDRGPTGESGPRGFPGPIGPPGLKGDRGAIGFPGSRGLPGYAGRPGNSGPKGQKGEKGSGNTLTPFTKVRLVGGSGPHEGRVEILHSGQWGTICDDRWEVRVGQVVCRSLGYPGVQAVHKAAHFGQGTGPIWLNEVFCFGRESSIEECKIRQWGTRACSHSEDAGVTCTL
Experimental: (§1) Buffer alone was also added to wells on each coat. […] This assay was conducted in four different assay runs.
(§2) Data analysis was performed using a sigmoidal dose-response model within Prism™ software (GraphPad).

Binder	% Blocking
B4	36%
B5	-60%
B6	-41%
B7	3%
B8	2%
B9	-1%
B10	-31%
B11	-15%
B12	54%

Target: T2, monkey MSR1 extracellular domain …
Test: SPR Biacore, 25 C, antibody captured;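 also: rates from 1:1 fit with mass transport limitation of real-time sensorgrams, HEPES-buffered saline with EDTA and Tween-20 at pH 7.4, KD and t½ derived from the kinetic rates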

Binder	Kd	koff	kon	t½
B1	1.59 nM	0.00199 s⁻¹	1.25e+06 M⁻¹ s⁻¹	6 min
B2	2.2 nM	0.000919 s⁻¹	417000 M⁻¹ s⁻¹	13 min
B3	0.506 nM	7.94e-05 s⁻¹	157000 M⁻¹ s⁻¹	145 min

target: T3, human MSR1 extracellular domain …; test: SPR Biacore, 25 C, antibody captured;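 also: rates from 1:1 fit with mass transport limitation of real-time sensorgrams, HEPES-buffered saline with EDTA and Tween-20 at pH 7.4, KD and t½ derived from the kinetic rates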

Binder	Kd	koff	kon	t½
B1	1.85 nM	0.00183 s⁻¹	989000 M⁻¹ s⁻¹	6 min
B2	2.03 nM	0.00122 s⁻¹	599000 M⁻¹ s⁻¹	9 min
B3	0.0796 nM	1.86e-05 s⁻¹	234000 M⁻¹ s⁻¹	620 min

target: T4, human MSR1 extracellular domain …; test: competition ELISA, plate-coated His9-hMSR1; 100 nM antibody, competitor ligand Ac-LDL
Experimental: as §1, §2

Binder	% Blocking
B4	8%
B5	-61%
B6	-47%
B7	-31%
B9	-41%
B10	-44%
B11	-38%
B12	52%

target: T4, human MSR1 extracellular domain …; test: competition ELISA, plate-coated His9-hMSR1; 300 nM antibody, competitor ligand biot-AGE-BSA
Experimental: as §1, §2

Binder	% Blocking
B4	15%
B5	-9%
B6	-9%
B7	-3%
B8	1%
B9	4%
B10	-2%
B11	-4%
B12	27%
